The results in this text go back to patent US20080161234A1, “Composition Comprising Lactic Acid and Lactoferrin” (priority 2004, published 2008).

In experiment [1] the test system is P. bivia strains (Pb 57, Pb 62). The experiment is described as follows: Growth inhibition of P. bivia by LF, spectrophotometric, 20 h anaerobic. The note with it: LF in various concentrations, no lactate, 0.34% BHI. It counts as cell-based. The procedure: The bacteria were incubated in 0.34% BHI under anaerobic conditions for 20 hours.
G. vaginalis and P. bivia were cultured on chocolate-GL-plates for 48 h in anaerobic milieu. The bacteria were harvested and suspended in BHI for further incubation (4 hours at 37° C.). The bacteria were washed twice in Bactopeptone (BP, 0.2%). The concentration was adjusted spectrophotometrically and diluted to 1×10^7 bacteria per ml.
The procedure for the microbicidal assay with regard to G. vaginalis and P. bivia was as described above except that the microplate was incubated under anaerobic conditions (2 h). Thereafter droplets of the solutions were analyzed for viable bacteria on blood agar plates after 48 h of anaerobic incubation at 37° C.
The microbicidal assay was modified in order to obtain survival conditions for G. vaginalis and P. bivia. Instead of 0.2% BP 0.34% BHI was used. The bacterial strains were analyzed with only LF added in various concentrations to the wells (no lactate present). The plate was incubated for 20 hours.

In experiment [2] the test system is C. albicans (ATCC 64549). Nature of the experiment: Microbicidal microplate assay (viable counts), C. albicans. It counts as cell-based. The procedure:
The bacterial strains S. aureus 1800 (CCUG 1800), E. coli 06, and the yeast C. albicans (ATCC 64549) have been used in the microplate assay. All microorganisms were cultured in brain heart infusion medium (BHI) on a shaker over night at 37° C. A volume of the culture was transferred to a new tube with BHI and incubated for two more h on the shaker. The bacteria were harvested in the log phase, washed once and thereafter suspended in the broth used for the microplate assay. The suspension was adjusted spectrophotometrically and diluted to a concentration of approximately 4×10^6 cells per ml at 650 nm. Washed cells were suspended in 0.2% BP (pH 7.0) or BHI medium diluted 1/10 (0.34%, pH 6.7-6.9) (Difco, USA). The concentration of bacterial or fungal cells was spectrophotometrically adjusted. LF or peptide, serially diluted in BHIdil or BP by twofold steps (unless otherwise stated), were added in triplicate to the wells of a microtiterplate (200 ul per well). The bacterial or yeast cell solutions were added in 10 ul volumes to give a final concentration of approximately 2×10^5 cells per ml. The concentration of the stock solution was always checked by viable counts. The microplate was incubated at 37° C. in a humid chamber for 2 h unless otherwise stated. Five ul were taken from each well and added as a drop onto a blood agar plate and incubated over night at 37° C. In some experiments more thorough viable counts were performed and the killing was expressed as remaining colony forming units in relation to the inoculum. The lower limit for detection of microorganisms was 200 CFU/ml. The antimicrobial activity of human LF was analysed by the microbicidal assay described above. Different microbes such as C. albicans, E. coli and S. aureus were analysed with respect to their survival in lactate (not containing the inert gel base, which makes the gel unsuitable for the microbicidal assay) containing LF. […] LF was incubated together with various concentrations of lactate diluted in 0.2% bactopeptone and C. albicans for 2 h. Thereafter each solution was analysed for viable counts.

B1: LF: LF from human milk purchased from Sigma; single chain iron-binding glycoprotein (protein, UniProt P02788 20-710, looked up)
Lactotransferrin: GRRRSVQWCAVSQPEATKCFQWQRNMRKVRGPPVSCIKRDSPIQCIQAIAENRADAVTLDGGFIYEAGLAPYKLRPVAAEVYGTERQPRTHYYAVAVVKKGGSFQLNELQGLKSCHTGLRRTAGWNVPIGTLRPFLNWTGPPEPIEAAVARFFSASCVPGADKGQFPNLCRLCAGTGENKCAFSSQEPYFSYSGAFKCLRDGAGDVAFIRESTVFEDLSDEAERDEYELLCPDNTRKPVDKFKDCHLARVPSHAVVARSVNGKEDAIWNLLRQAQEKFGKDKSPKFQLFGSPSGQKDLLFKDSAIGFSRVPPRIDSGLYLGSGYFTAIQNLRKSEEEVAARRARVVWCAVGEQELRKCNQWSGLSEGSVTCSSASTTEDCIALVLKGEADAMSLDGGYVYTAGKCGLVPVLAENYKSQQSSDPDPNCVDRPVEGYLAVAVVRRSDTSLTWNSVKGKKSCHTAVDRTAGWNIPMGLLFNQTGSCKFDEYFSQSCAPGSDPRSNLCALCIGDEQGENKCVPNSNERYYGYTGAFRCLAENAGDVAFVKDVTVLQNTDGNNNEAWAKDLKLADFALLCLDGKRKPVTEARSCHLAMAPNHAVVSRMDKVERLKQVLLHQQAKFGRNGSDCPDKFCLFQSETKNLLFNDNTECLARLHGKTTYEKYLGPQYVAGITNLKKCSTSPLLEACEFLRK
With B1, the “growth inhibition of P. bivia” value in experiment [1] was “Growth inhibition”. For the same molecule, the inoculate killed is reported as 92% in experiment [2] (LF 2 mg/ml in lactate 1%, 2 h) and 98.2% in experiment [2] (LF 5 mg/ml in lactate 1%, 2 h). In experiment [2] (LF in lactate concentrations 0.2%, 0.04% and 0%, 0.2% bactopeptone, 2 h), the “reduction of yeast cells” value amounted to 99.9%. Also, the “effect of LF on antimicrobial effect of lactate against C. albicans” value in experiment [2] (lactate diluted fivefold or more (≦1%), all LF concentrations except 0.5 mg at 1% lactate) is on record as “enhanced the antimicrobial effect of lactate”. The “microbicidal activity against C. albicans, LF compared with rHLF” value in experiment [2] (without lactate, 0.25 and 0.125 mg/ml, 2 h of incubation) is “somewhat more active”.
